Series [1] concerns the molecule itself. Nature of the series: SEC-MALS; 1 mg/mL protein injected on Superdex 200 Increase 10/300 GL at 10 °C; 20 mM TRIS, 300 mM NaCl, 1 mM DTT, pH 8.0; with 25 mM CaCl2; stoichiometric ratio = MALS molecular weight / theoretical monomer mass. (In general: In gel filtration, larger molecules generally elute earlier.)
Series [2] deals with the molecule itself. As to the kind of experiment: SEC-MALS; 1 mg/mL protein injected on Superdex 200 Increase 10/300 GL at 10 °C; 20 mM TRIS, 300 mM NaCl, 1 mM DTT, pH 8.0; without CaCl2; stoichiometric ratio = MALS molecular weight / theoretical monomer mass.

B1: STIM1-2β-OASF (STIM1-OASF mutated to contain the VAASYLIQ (2β) insertion after G379) (domain or fragment, human, UniProt Q13586-1 234-491, looked up)
chain: NRYSKEHMKKMMKDLEGLHRAEQSLHDLQERLHKAQEEHRTVEVEKVHLEKKLRDEINLAKQEAQRLKELREGTENERSRQKYAEEELEQVREALRKAEKELESHSSWYAPEALQKWLQLTHEVEVQYYNIKKQNAEKQLLVAKEGVAASYLIQAEKIKKKRNTLFGTFHVAHSSSLDDVDHKILTAKQALSEVTAALRERLHRWQQIEILCGFQIVNNPGIHSLVAALNIDPSWMGSTRPNPAHFIMTDDVDDMDEEIVSPLSMQ
notes: Made by PCR-mediated site-directed mutagenesis of pET-28a-STIM1-OASF; A few vector residues probably remain after thrombin cleavage (surmise); source: E. coli BL21 (DE3), purified under denaturing conditions (guanidine-HCl, nickel-NTA), renatured, thrombin-cleaved, SEC
Turning to B1, the stoichiometry N (as a rule, the number of molecules, sites or subunits per partner or assembly) in series [1] came out at 1.96; in series [2] it was 2.02.

For the origin of these results see publication PMC6274866, “The 2β Splice Variation Alters the Structure and Function of the Stromal Interaction Molecule Coiled-Coil Domains” (International Journal of Molecular Sciences, 2018).
